{
  "source": "paper PMC11529722",
  "about": "(Science Advances, 2024)",
  "binders": {"B1": {"name": "P1, protein-like polymer (PLP) with HVLVMSATRR peptide side chains (other)", "peptide": "HVLVMSATRR", "modifications": "N terminus conjugated to N-(hexanoic acid)-exo-5-norbornene-2,3-dicarboximide, polymerised through the norbornene (ROMP) into the polymer backbone"}},
  "molecular_target": "valosin-containing protein (VCP), histidine-tagged (UniProt P55072 1-806)",
  "sequence (P55072 whole entry)": "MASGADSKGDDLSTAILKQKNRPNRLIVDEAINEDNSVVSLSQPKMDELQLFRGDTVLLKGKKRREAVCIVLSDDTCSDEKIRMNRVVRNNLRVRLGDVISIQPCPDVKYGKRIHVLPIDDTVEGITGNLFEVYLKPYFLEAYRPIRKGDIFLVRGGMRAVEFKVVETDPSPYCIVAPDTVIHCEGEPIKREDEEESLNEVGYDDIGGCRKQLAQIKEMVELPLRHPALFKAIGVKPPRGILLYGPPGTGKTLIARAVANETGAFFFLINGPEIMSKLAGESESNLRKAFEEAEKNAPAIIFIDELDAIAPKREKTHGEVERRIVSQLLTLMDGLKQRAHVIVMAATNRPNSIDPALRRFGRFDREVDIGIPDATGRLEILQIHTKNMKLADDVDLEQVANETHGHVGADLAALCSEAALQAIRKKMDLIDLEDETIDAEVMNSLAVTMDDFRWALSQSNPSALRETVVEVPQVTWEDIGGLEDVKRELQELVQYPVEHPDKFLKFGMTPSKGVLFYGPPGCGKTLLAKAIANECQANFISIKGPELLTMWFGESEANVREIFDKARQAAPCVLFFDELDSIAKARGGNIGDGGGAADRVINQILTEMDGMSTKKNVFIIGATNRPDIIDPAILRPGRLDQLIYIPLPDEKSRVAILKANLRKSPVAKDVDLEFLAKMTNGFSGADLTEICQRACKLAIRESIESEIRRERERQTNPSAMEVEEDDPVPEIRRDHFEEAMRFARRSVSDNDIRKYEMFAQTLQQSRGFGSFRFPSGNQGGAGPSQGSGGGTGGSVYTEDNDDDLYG",
  "assay": "BLI",
  "data": [
    {"binder": "B1", "values": [
      {"measurement": "Kd", "value": 92, "unit": "nM"},
      {"measurement": "koff", "value": "2.5e-05", "unit": "s⁻¹"}
    ]}
  ]
}
